According to US20240301049A1 (Ablynx, published 2024):
“And” between values parts separate entries of the source, which are not always exact repeats. Equal entries are not always repeated.

Key:
[1] = target: T1, human TNFβ (human, UniProt P01374 35-205); assay: SPR (ProteOn XPR36), target immobilized
T1 construct: the result sentence prints TNF; also called hTNFβ
T1 sequence (looked up): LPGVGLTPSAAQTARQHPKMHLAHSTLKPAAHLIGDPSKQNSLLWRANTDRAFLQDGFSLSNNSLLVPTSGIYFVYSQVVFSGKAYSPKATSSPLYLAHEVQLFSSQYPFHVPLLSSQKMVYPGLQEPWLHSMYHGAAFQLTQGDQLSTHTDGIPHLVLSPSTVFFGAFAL

[2] = target: T2, human RANKL (human, UniProt O14788 140-317, limits assumed); assay: SPR (ProteOn XPR36), target immobilized
T2 construct: also called hRANKL
T2 sequence (looked up): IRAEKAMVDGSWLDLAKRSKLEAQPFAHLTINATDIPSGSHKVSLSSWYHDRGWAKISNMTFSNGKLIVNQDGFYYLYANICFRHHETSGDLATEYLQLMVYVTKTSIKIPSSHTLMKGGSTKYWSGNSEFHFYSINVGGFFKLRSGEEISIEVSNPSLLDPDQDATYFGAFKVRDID

[3] = target: T3, human IL23 (human, UniProt Q9NPF7 20-189; P29460 23-328); assay: SPR (ProteOn XPR36), target immobilized
T3 sequence (looked up) 1: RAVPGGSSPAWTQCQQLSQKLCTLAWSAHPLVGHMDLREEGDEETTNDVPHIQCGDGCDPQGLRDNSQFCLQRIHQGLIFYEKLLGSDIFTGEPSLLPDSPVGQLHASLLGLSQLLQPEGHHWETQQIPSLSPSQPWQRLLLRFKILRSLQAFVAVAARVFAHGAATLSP
T3 sequence (looked up) 2: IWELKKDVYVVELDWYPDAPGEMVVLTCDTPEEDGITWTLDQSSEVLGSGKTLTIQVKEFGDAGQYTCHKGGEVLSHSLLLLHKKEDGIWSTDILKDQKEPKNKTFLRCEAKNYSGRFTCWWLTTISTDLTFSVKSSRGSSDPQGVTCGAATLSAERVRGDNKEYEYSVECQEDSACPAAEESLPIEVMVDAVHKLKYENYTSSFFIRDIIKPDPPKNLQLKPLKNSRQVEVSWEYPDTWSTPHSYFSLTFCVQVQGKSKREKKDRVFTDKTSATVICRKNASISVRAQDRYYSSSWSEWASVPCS

[4] = target: T4, human LIGHT (human, UniProt O43557 74-240, limits assumed); assay: SPR (ProteOn XPR36), target immobilized
T4 construct: also called hLIGHT

[5] = target: T5, human IL27 (human, UniProt Q8NEV9 29-243; Q14213 21-229); assay: SPR (ProteOn XPR36), target immobilized
T5 sequence (looked up) 1: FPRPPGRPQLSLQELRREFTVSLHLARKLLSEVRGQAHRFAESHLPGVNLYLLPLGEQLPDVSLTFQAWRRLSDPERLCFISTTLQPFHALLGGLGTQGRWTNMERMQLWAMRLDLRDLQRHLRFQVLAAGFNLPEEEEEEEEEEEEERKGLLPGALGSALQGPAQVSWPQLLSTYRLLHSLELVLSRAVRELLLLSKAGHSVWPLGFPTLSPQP
T5 sequence (looked up) 2: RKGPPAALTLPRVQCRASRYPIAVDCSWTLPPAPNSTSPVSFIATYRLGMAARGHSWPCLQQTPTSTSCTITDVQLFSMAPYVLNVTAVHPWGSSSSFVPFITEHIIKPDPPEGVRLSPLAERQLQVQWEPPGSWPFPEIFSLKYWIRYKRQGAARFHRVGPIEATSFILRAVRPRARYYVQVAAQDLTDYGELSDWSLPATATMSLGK

[6] = target: T6, human TL-1A (human, UniProt O95150 72-251); assay: SPR (ProteOn XPR36), target immobilized
T6 construct: also called hTL-1A
T6 sequence (looked up): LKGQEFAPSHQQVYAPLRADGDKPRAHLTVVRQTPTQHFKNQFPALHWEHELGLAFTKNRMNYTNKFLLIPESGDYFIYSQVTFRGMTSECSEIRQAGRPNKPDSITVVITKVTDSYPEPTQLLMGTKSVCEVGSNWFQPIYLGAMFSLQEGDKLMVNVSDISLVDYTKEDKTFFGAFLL

[7] = target: T7, human IL11 (human, UniProt P20809 22-199); assay: SPR (ProteOn XPR36), target immobilized
T7 sequence (looked up): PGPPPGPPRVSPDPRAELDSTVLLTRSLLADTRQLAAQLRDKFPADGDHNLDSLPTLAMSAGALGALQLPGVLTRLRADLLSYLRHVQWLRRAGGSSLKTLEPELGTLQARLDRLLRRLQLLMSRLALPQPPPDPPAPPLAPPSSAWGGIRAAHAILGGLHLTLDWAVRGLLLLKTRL

[8] = target: T8, human oncostatin M (human, UniProt P13725 26-221, limits assumed); assay: SPR (ProteOn XPR36), target immobilized
T8 construct: also called OSM
T8 sequence (looked up): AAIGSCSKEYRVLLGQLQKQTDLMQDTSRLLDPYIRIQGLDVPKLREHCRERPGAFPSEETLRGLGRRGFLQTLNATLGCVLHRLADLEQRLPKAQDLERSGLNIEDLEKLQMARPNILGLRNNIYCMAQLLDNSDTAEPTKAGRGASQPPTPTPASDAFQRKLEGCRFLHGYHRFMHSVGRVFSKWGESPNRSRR

[9] = target: T9, human FASL (human, UniProt P48023 134-281, limits assumed); assay: SPR (ProteOn XPR36), target immobilized
T9 construct: also called hFASL
T9 sequence (looked up): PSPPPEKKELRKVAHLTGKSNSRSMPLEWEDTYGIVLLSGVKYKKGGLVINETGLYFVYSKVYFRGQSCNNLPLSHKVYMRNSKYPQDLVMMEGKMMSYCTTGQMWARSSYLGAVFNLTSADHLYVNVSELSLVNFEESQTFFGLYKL

[10] = target: T10, human membrane TNFα expressed on HEK293H cells (human, UniProt P01375 1-233); assay: flow cytometry, HEK293H cells expressing human membrane TNFα, without HSA, 24 h
T10 construct: whole, on cells; also called membrane expressed TNFα
Procedure: Briefly, cells were fixed with 4% paraformaldehyde and 0.1% glutaraldehyde in PBS (to increase detection of membrane bound TNFα). […] Cells were washed 3 times and subsequently incubated with an anti-VHH mAb (ABH00119) for 30 min at 4° C., washed again, and incubated for 30 min at 4° C. with a goat anti-mouse or anti-human PE labeled antibody. Samples were washed and resuspended in FACS Buffer (D-PBS with 10% FBS and 0.05% sodium azide supplemented with 5 nM TOPRO3). Cell suspensions were then analyzed on an iQuescreener. EC50 values were calculated using GraphPad Prism.

T10 sequence (P01375 whole entry): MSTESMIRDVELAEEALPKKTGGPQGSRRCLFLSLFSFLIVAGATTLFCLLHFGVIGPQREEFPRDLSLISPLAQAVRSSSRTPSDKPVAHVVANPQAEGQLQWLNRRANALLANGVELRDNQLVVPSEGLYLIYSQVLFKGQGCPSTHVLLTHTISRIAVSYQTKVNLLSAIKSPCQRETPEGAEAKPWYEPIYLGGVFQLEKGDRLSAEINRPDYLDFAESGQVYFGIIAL
T4 sequence (O43557 74-240 limits assumed): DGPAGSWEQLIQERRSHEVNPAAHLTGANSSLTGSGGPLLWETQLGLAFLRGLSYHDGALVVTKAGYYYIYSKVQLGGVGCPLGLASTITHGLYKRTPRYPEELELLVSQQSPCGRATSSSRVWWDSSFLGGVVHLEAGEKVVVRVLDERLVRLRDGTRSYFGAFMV

B1: F027201062 (bispecific antibody)
chain: DVQLVESGGGVVQPGGSLRLSCAASGRTFSNYAMAWFRQAPGKEREFVAVISYAGGRTYYADSVKGRFTISRDNAKNTVYLQMNSLRPEDTALYYCAAVDSPLIATHPRGYDYWGQGTLVTVSSGGGGSGGGSEVQLVESGGGVVQPGGSLRLSCAASGFTFRSFGMSWVRQAPGKGPEWVSSISGSGSDTLYADSVKGRFTISRDNSKNTLYLQMNSLRPEDTALYYCTIGGSLSRSSQGTLVTVSSGGGGSGGGSEVQLVESGGGVVQPGGSLRLSCAASGFTLAYYAIGWFRQAPGKEREGVSCISGSVGTTYYADSVKGRFTISRDNAKNTVYLQMNSLRPEDTALYYCVRSSWFDCGVQGRDLGNEYDYRGQGTLVTVSSGGGGSGGGSEVQLVESGGGVVQPGGSLRLSCTASGFTFSTADMGWFRQAPGKGREFVARISGIDGTTYYDEPVKGRFTISRDNSKNTVYLQMNSLRPEDTALYYCRSPRYADQWSAYDYWGQGTLVKVSSA
notes: anti-IL-6 (17C04, 6B12), anti-HSA (ALB23002), anti-TNF-α (6C11), C-terminal alanine; produced in Pichia pastoris; also called ISVD construct F027201062; Nanobody F027201062
[1]
  binding result: no binding (tested: 300 nM)
[2]
  binding result: no binding (tested: 300 nM)
[3]
  binding result: no binding (tested: 300 nM)
[4]
  binding result: no binding (tested: 300 nM)
[5]
  binding result: no binding (tested: 300 nM)
[6]
  binding result: no binding (tested: 300 nM)
[7]
  binding result: no binding (tested: 300 nM)
[8]
  binding result: no binding (tested: 300 nM)
[9]
  binding result: no binding (tested: 300 nM)
[10]
  EC50: 0.12 nM and 0.18 nM and 0.17 nM
